Consider 1 molecule from patent publication US20150030599A1 (SAMSUNG ELECTRONICS, published 2015).

The Kd is the constant that tells how readily two partners part at equilibrium. A lower Kd goes with higher affinity. The term koff denotes the rate constant with which the complex falls apart. As a reminder, the kon is the rate constant with which the complex forms. Read a low kon as slow association.

The experiment deals with T1, EGFR-Fc (#344-ER, R&D Systems) (UniProt P00533 25-645).
T1 construct: Bought reagent; not shown: Fc part of the bought fusion protein is not described
Put plainly: SPR (Biacore T100), ME22S captured on human Fab binder, EGFR-Fc injected. How it is done:
In addition, the affinities of the prepared anti-c-Met/anti-EGFR bispecific antibody to the two types of antigens, c-Met and EGFR, were each identified using Biacore T100 (GE). A human Fab binder (GE Healthcare) was immobilized at the surface of a CM5 chip (#BR-1005-30, GE) according to the manufacturer's specifications. […] 10 mM Glycine-HCl (pH 1.5) solution was injected thereto to regenerate the surface. In order to measure affinity, the data obtained from this experiment was fitted using BIAevaluation software (GE Healthcare, Biacore T100 evaluation software).
A general note: Surface plasmon resonance follows binding to a sensor surface in real time, without labels.

B1: anti-c-Met/anti-EGFR bispecific antibody ME22S (bispecific antibody)
heavy: EVQLVESGGGLVQPGGSLRLSCAASGFTFTDYYMSWVRQAPGKGLEWLGFIRNKANGYTTEYSASVKGRFTISRDNSKNTLYLQMNSLRAEDTAVYYCARDNWFAYWGQGTLVTVSSASTKGPSVFPLAPCSRSTSESTAALGCLVKDYFPEPVTVSWNSGALTSGVHTFPAVLQSSGLYSLSSVVTVPSSNFGTQTYTCNVDHKPSNTKVDKTVERKCCVECPPCPAPPVAGPSVFLFPPKPKDTLMISRTPEVTCVVVDVSHEDPEVQFNWYVDGVEVHNAKTKPREEQFNSTFRVVSVLTVVHQDWLNGKEYKCKVSNKGLPAPIEKTISKTKGQPREPQVYTLPPSREEMTKNQVSLTCLVKGFYPSDIAVEWESNGQPENNYKTTPPMLDSDGSFFLYSKLTVDKSRWQQGNVFSCSVMHEALHNHYTQKSLSLSPGKGGGGSGGGGSEVQLLESGGGLVQPGGSLRLSCAASGFTFSNYDMSWVRQAPGKCLEWVSGISHSSGSKYYADSVKGRFTISRDNSKNTLYLQMNSLRAEDTAVYYCAKDATPRPLKPFDYWGQGTLVTVSSGGGGSGGGGSGGGGSQSVLTQPPSASGTPGQRVTISCTGSSSNIGNNDVSWYQQLPGTAPKLLIYDDNKRPSGVPDRFSGSKSGTSASLAISGLRSEDEADYYCGSWDASLNAYVFGCGTKLTVLG
light: DIQMTQSPSSLSASVGDRVTITCKSSQSLLASGNQNNYLAWYQQKPGKAPKMLIIWASTRVSGVPSRFSGSGSGTDFTLTISSLQPEDFATYYCQQSYSRPYTFGQGTKVEIKRTVAAPSVFIFPPSDEQLKSGTASVVCLLNNFYPREAKVQWKVDNALQSGNSQESVTEQDSKDSTYSLSSTLTLSKADYEKHKVYACEVTHQGLSSPVTKSFNRGEC
notes: The modified anti-EGFR scFv is fused through (G4S)2 to the C-terminus of the Fc of L3-1Y-IgG2
For the molecule B1, the affinity, expressed as Kd, was 0.49 nM; the koff came to 9.2e-05 s⁻¹; the on-rate constant (kon) was 190000 M⁻¹ s⁻¹.
